Where a chain is given by its changes, count along the chain named. In names and notes the source's numbering stands.

Consider ten molecules from paper PMC12645435, “Improved Nucleoside (2′-Deoxy)Ribosyltransferases Maximize Enzyme Promiscuity while Maintaining Catalytic Efficiency” (ACS Chemical Biology, 2025).

For data set [1], the target named is T1, CtNDT (Chroococcidiopsis thermalis, UniProt K9TVX3, Y7F).
T1 construct: gene Chro_1188; homotetramer; residues 111 and 118 of the neighbouring subunit complete the site; expression host and tags only in supplement
T1 sequence (K9TVX3 entry or part of it Y7F): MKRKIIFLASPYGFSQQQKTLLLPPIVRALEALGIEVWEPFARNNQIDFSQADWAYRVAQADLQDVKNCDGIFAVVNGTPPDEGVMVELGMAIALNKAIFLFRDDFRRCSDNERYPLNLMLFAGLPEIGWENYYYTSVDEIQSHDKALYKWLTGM
Nature of the data set: X-ray crystal structure. The format is binding. The following applies: active site; ligand placed in 2 of 4 protomers, less defined density.

For data set [2], the target named is T2, CtNDT (Chroococcidiopsis thermalis, UniProt K9TVX3, A9S/Y7F).
T2 construct: gene Chro_1188; homotetramer; residues 111 and 118 of the neighbouring subunit complete the site; expression host and tags only in supplement
T2 sequence (K9TVX3 entry or part of it Y7F/A9S): as the sequence (K9TVX3 entry or part of it Y7F) above, with A9S counted along it
In words: binding assay (details in supplement).

Data set [3] has as its target T3, CtNDT (Chroococcidiopsis thermalis, UniProt K9TVX3, Y7F/A9S).
T3 construct: gene Chro_1188; homotetramer; residues 111 and 118 of the neighbouring subunit complete the site; expression host and tags only in supplement
In words: X-ray crystal structure. To be noted: active site, ribosyl-binding pocket.

The target of data set [4] is T4, CtNDT (Chroococcidiopsis thermalis, UniProt K9TVX3, A9S).
T4 construct: gene Chro_1188; homotetramer; residues 111 and 118 of the neighbouring subunit complete the site; expression host and tags only in supplement
T4 sequence (K9TVX3 entry or part of it A9S): as the sequence (K9TVX3 entry or part of it Y7F) above, with F7Y, A9S counted along it
In words: HPLC initial rates, Michaelis-Menten. The format is biochemical. The following applies: adenine as nucleobase acceptor.

For data set [5], the target named is T5, CtNDT (Chroococcidiopsis thermalis, UniProt K9TVX3, V85S).
T5 construct: gene Chro_1188; homotetramer; residues 111 and 118 of the neighbouring subunit complete the site; expression host and tags only in supplement
T5 sequence (K9TVX3 entry or part of it V85S): as the sequence (K9TVX3 entry or part of it Y7F) above, with F7Y, V85S counted along it
Nature of the data set: HPLC initial rates, Michaelis-Menten. The format is biochemical. To be noted: adenine as nucleobase acceptor.

Data set [6] concerns the target T6, CtNDT (Chroococcidiopsis thermalis, UniProt K9TVX3).
T6 construct: gene Chro_1188; homotetramer; residues 111 and 118 of the neighbouring subunit complete the site; expression host and tags only in supplement
In words: steady-state kinetics (details in supplement). The format is biochemical. To be noted: nucleobase acceptor; kcat/KM only said to be similar.

Substrate in data set [7]: OC[C@H]1O[C@@H](n2cnc3c(O)ncnc32)[C@H](O)[C@@H]1O
In words: HPLC initial rates, Michaelis-Menten. Type of data set: biochemical, Chroococcidiopsis thermalis. To be noted: adenine as nucleobase acceptor.

Substrate in data set [8]: OC[C@H]1O[C@@H](n2cnc3c(O)ncnc32)[C@H](O)[C@@H]1O
Nature of the data set: HPLC initial rates, Michaelis-Menten. Type of data set: biochemical, Chroococcidiopsis thermalis. To be noted: adenine as nucleobase acceptor. An excerpt:
HPLC initial rates, Michaelis-Menten on CtNDT | evaluated with inosine as the sugar donor and adenine as the […]
The source holds these as a separate data set.

T6 sequence (K9TVX3 entry or part of it): as the sequence (K9TVX3 entry or part of it Y7F) above, with F7Y counted along it
T3 sequence (K9TVX3 entry or part of it Y7F/A9S): as the sequence (K9TVX3 entry or part of it Y7F) above, with A9S counted along it

As a reminder, the Kd is the concentration at which binding is half-saturated. Lower therefore signals a tighter complex. `O=c1[nH]cnc2c([C@@H]3N[C@H](CO)[C@@H](O)[C@H]3O)c[nH]c12` [Immucillin-H]: in data set [1], the X-ray crystal structure is reported as 9EMWCtNDTY7F bound to ImmH. For the same molecule, the Kd in data set [2] was determined as 590 µM.

`Nc1ncnc2c1ncn2[C@@H]1O[C@H](CO)C[C@H]1O` [cordycepin]: the X-ray crystal structure in data set [3] was 9EMXCtNDTY7F‑A9S bound to Cordycepin.

With `O=c1[nH]cnc2c1ncn2[C@@H]1O[C@H](CO)[C@@H](O)[C@H]1O` [inosine], the “K M-inosine” value in data set [4] and in data set [5] was “These mutants had modest changes in K M‑inosine” each time.

Consider `O=c1[nH]c(=O)c2[nH]cnc2[nH]1` [xanthine], for which, in data set [6], the “k cat/K M” value is “uric acid, xanthine, and hypoxanthine, which have similar k cat/K M values”.

Take `O=c1[nH]cnc2nc[nH]c12` [hypoxanthine]: the “k cat/K M” value in data set [6] is “uric acid, xanthine, and hypoxanthine, which have similar k cat/K M values”.

B1: CtNDT (Chroococcidiopsis thermalis PCC 7203; Y7A) (protein)
chain: MKRKIIALASPYGFSQQQKTLLLPPIVRALEALGIEVWEPFARNNQIDFSQADWAYRVAQADLQDVKNCDGIFAVVNGTPPDEGVMVELGMAIALNKAIFLFRDDFRRCSDNERYPLNLMLFAGLPEIGWENYYYTSVDEIQSHDKALYKWLTGM
notes: homotetramer; residues 111 and 118 of the neighbouring subunit complete the site; expression host and tags only in supplement
As usually defined, the Km is the concentration of substrate that gives half-maximal velocity. Usually kcat stands for the number of substrate molecules converted per active site and unit of time at saturation. Turning to B1, in data set [7], the Km is 530 ± 10 µM and the kcat was 0.02 ± 0.01 s⁻¹.

B2: CtNDT (Chroococcidiopsis thermalis PCC 7203; Y7F) (protein)
chain: B1 chain with A7F
notes: as for B1
For the molecule B2, in data set [7], the Km worked out at 710 ± 170 µM and the kcat worked out at 0.03 ± 0.01 s⁻¹.

B3: CtNDT (Chroococcidiopsis thermalis PCC 7203) (protein)
chain: B1 chain with A7Y
notes: as for B1
On to B3, for which, in data set [8], the Km came out at 920 ± 240 µM and the kcat turned out to be 0.01 ± 0.01 s⁻¹.

B4: CtNDT (Chroococcidiopsis thermalis PCC 7203; A9S/Y7F) (protein)
chain: B1 chain with A7F, A9S
notes: as for B1
With B4, the Km in data set [7] was 620 µM.

B5: CtNDT (Chroococcidiopsis thermalis PCC 7203; D62N) (protein)
chain: B1 chain with A7Y, D62N
notes: as for B1
Consider B5, for which, in data set [7], the Km is 800 ± 90 µM and the kcat stood at 0.002 ± 0.001 s⁻¹.
